The values below come from the nanobody polyreactivity screen of Harvey et al. (2022).

This data set is described as follows: yeast display, Sf9 membrane polyspecificity reagent, FACS + sequencing; frameworks hold sequencing errors. The method in brief: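 In a synthetic yeast display library (Saccharomyces cerevisiae BJ5465), nanobody expression was induced with galactose for 36–48 hours. FACS gates were set low and high (top ~1%) using anti-HA fluorescence for expression and streptavidin fluorescence for binding of the Sf9 membrane reagent. Each polyreactivity label is drawn from the gate of origin.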
Regarding “QVQLLESGGGLVQAGGSIRLTCAASGRIFYGNTMGWYRQAPGQETELVAAITIGDSTNYADSVKGRFTISRDNAKYTVYLQMNSLKPEDTAVFYCGKRNWWGYYKYDYWGQGSQVTVSS”, the “polyreactivity (PSR sort gate)” value is “low polyreactivity”.

With “QVQLLESGGGLVQAGGSLRLSCAASGFIFAKNAMGWYRKAPGKERELVAAISASGGRTYYADSVKGRFTISRDNAKNTVYLQMNSLKPEDTAVYYCAARRDGRSGSYNYWGQGTQVTVSS”, the “polyreactivity (PSR sort gate)” value is recorded as “high polyreactivity”.

“QVQLLESGGGLVQAGGSLRLSCAASGFIFDIYAMGWYRQAPGKERELVASINWSGGDSTSYADSVKGRFTISRDNAKNTVFLQMYSLKPEDTAVYFCNAEYWSYSGGYPDEYDYWGLGTQVTVSS”: the “polyreactivity (PSR sort gate)” value was “low polyreactivity”.

In the case of “QVQLLESGGGLVQAGGSLRLSCAASGFTFLSNVMGRYRQAPGKERELVAGINFSGDGTYYADSVKGRFTISRDNAKNTVYLQMNSLKPEDTAVYYCAGDVEYYRDVPQQVYVSDDYWGQGTQVTVSS”, the “polyreactivity (PSR sort gate)” value is “low polyreactivity”. Then “QVQLLESGGGLVQAGGSLRLSCAASGFTFRVNAMGWYIQAPGKERELVAAISSGGSTNYADSVKGRFTISRDNAKNTVYLQMNSLKPEDTAVYYCAKRFKYIYFWGQGTQVTVSS”, with “high polyreactivity”; and “QVQLLESGGGLVQAGGSLRLSCAASGFTITRYAMGWYRQAPGKERELVAAITYRGGSTYYADSVKGRFTISRDNAKITVYLQMNSLKPEDTAVYYCAADALYYFSWYYYWGQGTQVTVSS”, with “high polyreactivity”; and “QVQLLESGGGLVQAGGSLRLSCAASGLTFVRYDMGWDRQAPGKERELVAAISSSGGSTNYADSVKGRFTISRDNAKNTVYLQMNSLKPEDTAVYYCAADYTWRFLRFGYWGQGTQVTVSS”, with “high polyreactivity”. Then “QVQLLESGGGLVQAGGSLRLSCAASGNLFHVNAMGWYRQAPGKERELVASISRRGGSTNYADSVKGRFTISRANAKNTVYLQMNSLKPEDTAVYYCATRLTSAVGRYLYDFGYWGQGTQVTVSS”, with “high polyreactivity”.

As for “QVQLLESGGGLVQAGGSLRLSCAASGRIFASYAMGWYRQAPGKARELVAAISTGGNTYYADSVKGRFTISRDNAKNTVYLQMNSLKPEDTAVYDCAALSGAHEHFVEYDYWGQGTQVTVSS”, the “polyreactivity (PSR sort gate)” value is recorded as “low polyreactivity”. For the sequence “QVQLLESGGGLVQAGGSLRLSCAASGRIFGSNAMGWYRPAPGKERELVAAITRGGSTNYADSVKGRFTISRDNAKNTVYLQMNSLKPEDTAVYYCAVRWYRKYNYWGQGTQVTVSS”, the “polyreactivity (PSR sort gate)” value is listed as “high polyreactivity”. As for “QVQLLESGGGLVQAGGSLRLSCAASGRIFGYYAMGWYRQAPGKERELVASISWSGGSTYYADSVKGRFSISRDNAKNTVYLQMNSLKPEDTAVYYCAAKRSFLSTIGNYDYWGQGTQVTVSS”, the “polyreactivity (PSR sort gate)” value is given as “high polyreactivity”.

Regarding “QVQLLESGGGLVQAGGSLRLSCAASGRIFQFYAMGWYRKAPGKERELVAANSVRGGSTYYAHSVKGRFTISRDNEKNTVYLQMNSLKPEDTAVYYCAASKWGGYYYWGQGTQVTVSS”, the “polyreactivity (PSR sort gate)” value is given as “high polyreactivity”. Turning to “QVQLLESGGGLVQAGGSLRLSCAASGRIFSAYAMGWSRQAPGTERELVAAISWSGGSTYYADSVKGRFTISRDNAKNTVYLQMNSLKPEDTAVYYCAADYFYTSWYQHDYWGQGTQVTVSS”, the “polyreactivity (PSR sort gate)” value was “low polyreactivity”. Consider “QVQLLESGGGLVQAGGSLRLSCAASGRIFVTYAMGWYRQAPGKERELVAAITSRGGRTYYADSVKGRFTISRDNAKNTVYLQMNSLKPEATAVYYCAAYPGPGARYYYWGQGTQVTVSS”, for which the “polyreactivity (PSR sort gate)” value is “high polyreactivity”. Then “QVQLLESGGGLVQAGGSLRLSCAASGRIFWNNAMGWYRQAPGKERELVAVISTRGGRTYYADSVKGRFTISRDNANNTVNLQMNSLKPEDTAVYYCAAEFLNKAVGGVTSIYDSWGQGTQVTVSS”, with “low polyreactivity”; and “QVQLLESGGGLVQAGGSLRLSCAASGRTFRHNVMAWYRQAPGNERELVAAISYSRGSTHYADSVKGRFTISRDNAKNTVYFQMNSLKPEANAVYYCNRYSYDAHFLYPFRGHDYWGQGTQVTVTS”, with “low polyreactivity”. Then “QVQLLESGGGLVQAGGSLRLSCAASGRTFRINARGWYRQAPGKEREFVAAINYRGGSTYADSVKGRFTISRDNAKNTVYVQMNSLKPEDPAVYYCAAYATLWYYTGVHRGGFENWGQGSQVTVSS”, with “high polyreactivity”; and “QVQLLESGGGLVQAGGSLRLSCAASGRTFTLYTMGWYRQAPGKERELVAAISARGGSTYYADSVKGRFTISRDNAKNTVYLQMNSLKPEDTAVYYCAAESNRLRYYYWGQGTQVTVSS”, with “high polyreactivity”. Then “QVQLLESGGGLVQAGGSLRLSCAASGRTLVGYAMGWYRQAPGTERELVAAITGSGGRTYYADSVKGRFTISRDNAKNTVYLQMNSLKPEDTAVYYCNKVYRVSSGAYLYDYWGQGTQVTVSS”, with “high polyreactivity”; and “QVQLLESGGGLVQAGGSLRLSCAASGSIFTGNAMGWYRQAPGKERELVAAISSSGGSTYYADSVKGRFTISRDNAKNNVYLQMNSLKPEDTAVYYCAAYNYFLQYDYWGQGSQVTVSS”, with “low polyreactivity”; and “QVQLLESGGGLVQAGGSLRLSCAASGSTFDWYVMGWYRQAPGKERELVAAINQGSGSTYYADSVKGRFTISRDNAKNTVYLQMNSLKPEDTAVYYCAADRYGAGYLYWPYDYWGQGTQVTVSS”, with “low polyreactivity”.

Turning to “QVQLLESGGGLVQAGGSLRLSCAASGSTFGYYTMGWYRQAPGKERVLVAGISSGGSTNYADSVKGRFTISRDNAKNTVYLQMNSLKQEDTAVYYCDTGSYSYHRGYVTYARFGYWGQGTQVTVSS”, the “polyreactivity (PSR sort gate)” value is recorded as “low polyreactivity”. Consider “QVQLLESGGGLVQAGGSLRLSCAASGSTLARYTMGWSRQAPGKERELVATIDFGGVNTYYADSVKGRFTISRDNAKNTVYLQMNSLKPEDTAVYYCAVDNPFIWFFGPDEYWGQGTQVTVSS”, for which the “polyreactivity (PSR sort gate)” value is listed as “low polyreactivity”. Then “QVQLLESGGGLVQAGGSLRLSCAASGSTLKLNAMGWYRQAPGKDRELVAAITRSGGSTNYADSVKGRFTISRDNAKNTVSLQMNSLKPEDTAVYDCAADVLWDEFGYWGQGTQVTVSS”, with “low polyreactivity”; and “QVQLLESGGGLVQAGGSLRLSCAASGSTLLQYAMGWYRQAPGKEREFVAAISASGARTYYADSVKGRFTISRDNAKNTVYLQMNSLKPEETAVYYCAALTQRSSFDYWGQGTQVTVSS”, with “high polyreactivity”. “QVQLLESGGGLVQAGGSLRLSCAASGTNFDYYLMGWYRQAPGKERELVAAISWSGASTYYADSVKGRFTISRDNAKNTVYLQMNSLKPEDSAVYYCAADYCVKTLIDYDYWGEGTQVTVSS”: the “polyreactivity (PSR sort gate)” value is recorded as “low polyreactivity”. Then “QVQLLESGGGLVQAGGSLRLSCAASGYTFARYAMGWYRQAPGQERELVAAITSSGGSTYYADSVKGRFTISRDNAKNTVYLQMNSLKPEDTAVYYCNARGFQKSDPRGYLILNYWGQGTQVTVSS”, with “high polyreactivity”; and “QVQLLESGGGLVQAGGSLRLSCAASRSTFPGYAMGWYRQAPGKETELVAAITWSGVTTYYADSVKGRFTISRDNAKYTVYLQMNSLKPEDTAVYYCATGTLYSDGAIYGYWGQGTQVTVSS”, with “low polyreactivity”.

In the case of “QVQLLESGGGLVQAGGSLRLSCASSGRTFVRYGMGWSRQAPGKERELVAAITGSGSRTYYADSVKGRFTISRDNAKNTVYLQMNSLIPKDTAVYYCAGRGQGGAGDPRYPVYYWGQGTQVTVSS”, the “polyreactivity (PSR sort gate)” value was “high polyreactivity”.

In the case of “QVQLLESGGGLVQAGGSLRLSCASSGRTYWYYAMGWYRQAPGKERELVATITRSTGSTYYADSVKGRFTISRDNAKNTGYLQMNSLKPEDTAVYYCARLYYFNGDYWGQGTQVTVSS”, the “polyreactivity (PSR sort gate)” value is listed as “high polyreactivity”. In the case of “QVQLLESGGGLVQAGGSLRLSCASSGSIFFRNAMVWYRQAPGKEREYVAAITGSSVSTYYADSVKGRFTISRDNAKNTVYLQMNSLKPEDTAVYYCAVRKWIGYNPYDDWGQGTQVTVSS”, the “polyreactivity (PSR sort gate)” value is reported as “high polyreactivity”.

As for “QVQLLESGGGLVQAGGSLRLSCMASGSILGDRMSWYRQAPGKEHELVATIYDGGITCYADSMKGRFTISRDNAKNTVYLQMNSLRPEDTAVYYCGASFEGYRYHVYCGQGTQVTVSS”, the “polyreactivity (PSR sort gate)” value is on record as “low polyreactivity”. Then “QVQLLESGGGLVQAGGSLRVSCAASGFTFSRNVMGWYRQAPGKERELVAAITSGSTYYADSVKGRFTISRDNAKNTVYLQMNRLKPEDTAVYYCAKRGRLRNYDYWGQGTQVTVSS”, with “high polyreactivity”; and “QVQLLESGGGLVQAGGSRRLSCASSGITFAFYAMGWYRQAPGKESELVAAISWSGTRTYYADSVKGRFTISRDNAKNTVYLQMNRLKPEDTAVYYCAAVYQAGDKLYDYWGQGTQVTVSS”, with “low polyreactivity”.

In the case of “QVQLLESGGGLVQARGSLRLSCAASARTIFKNAMAWYRQAPGKERELVARISWNGGDSTYYADSVTGRFTISRDNAKNTVYLQMNSLKPEDTAVYSCAADTSYRPGGSRQGYGYWGQGTQVTVSS”, the “polyreactivity (PSR sort gate)” value was “low polyreactivity”. Take “QVQLLESGGGLVQPGGSLRLSCAASGSTFDSYVKGWYRKAPGKERELVAANSSDDSTYYADSVKGRFTISRDNAKNTVYLQMISLKPEDTAVYYCAATNFRDYYCSWNYYYWGQGTQVTVSS”: the “polyreactivity (PSR sort gate)” value is given as “low polyreactivity”. Consider “QVQLLESGGGLVQPGGSLRLSCAASGSTFIGYAMGWYRQAPGKETELVAAISWSGGRTYYADSVKGRFTISRDNAKNTVYLQMNSLKAEDTAVYYCNTVPYRISVQFNYWGQGTQVTVSS”, for which the “polyreactivity (PSR sort gate)” value was “high polyreactivity”. Then “QVQLLESGGGLVQPGGSLRLSCAASGSTFYDYAMGWYRTAPGKEREFVADIYSNGGSTYYAHSVKGRFTISRDNANYTVYLQMNSLKPEDTAVYYCASVLRPRQGRRYDYWGQGTQVTVSS”, with “low polyreactivity”; and “QVQLLESGGMVQAGGLRLSCAASGSVSYQEAMGWYRQAPGKERELVATISFGANTNYADSVKGRFTISRDNAKNTVYLQMNSLKPEDTAVYYCAAESLFYDYYGYWGQGTQVNVSS”, with “low polyreactivity”. Then “QVQLLESGGRLVQAGGSLRLSCAASGSTYNQYDMGWYRQAPGKERELVAAISTNGGRTYYADSVKGRFTISRDNAKNTVYLLMNSLKPEYTAVYYCNRAGRGRWSNMDHWGQGTQVTVSS”, with “high polyreactivity”. Then “QVQLLESGRGLVQEGGSLRLSCAASGFTFTAYAMGWYRQAPGKERELVAVISVRGGRTRYADSVKGRFTLSRDNAKNTVYLQMNSLKPEDTAVYYCDARYRPYSGSPQYDYWGQGTQVTVSS”, with “high polyreactivity”.
